# Experimental data reported in article PMC5507911, “Beyond the Debye length in high ionic strength solution: direct protein detection with field-effect transistors (FETs) in human serum”.
# B1: CRP aptamer (ssDNA)
# DNA: GGCAGGAAGACAAACACGATGGGGGGGTATGATTTGATGTGGTTGTTGCATGATCGTGGTCTGTGGTGCTGT
# modifications: 5' thiol (SH)
# Experiments:
# C-reactive protein (CRP) = molecular target: T1, C-reactive protein (CRP) (UniProt P02741 19-224); experiment: EDL FET (AlGaN/GaN HEMT) biosensor; 1X PBS with 1% BSA; 1 fM-100 nM CRP; current gain increases with concentration; 1X PBS with 1% BSA (or undiluted human serum for CRP), 5 min incubation for HIV-1 RT, no washing; Vd 2 V, Vg pulse 0 to 0.5 V (HIV-1 RT); pH and temperature not stated; conditions: chain copies: 5
# T1 sequence: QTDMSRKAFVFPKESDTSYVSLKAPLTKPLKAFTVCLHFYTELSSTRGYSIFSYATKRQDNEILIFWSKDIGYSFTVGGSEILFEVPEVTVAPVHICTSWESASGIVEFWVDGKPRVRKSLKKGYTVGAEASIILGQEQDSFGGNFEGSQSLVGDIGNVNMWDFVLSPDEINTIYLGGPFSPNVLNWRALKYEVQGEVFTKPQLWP
# [1] = molecular target: T2, C-reactive protein (CRP) in clinical serum (human, UniProt P02741 19-224); experiment: EDL FET (AlGaN/GaN HEMT) biosensor; undiluted human sera; 0.34-23.2 mg/L CRP; 1X PBS with 1% BSA (or undiluted human serum for CRP), 5 min incubation for HIV-1 RT, no washing; Vd 2 V, Vg pulse 0 to 0.5 V (HIV-1 RT); pH and temperature not stated; conditions: protein: native; chain copies: 5
# T2 sequence: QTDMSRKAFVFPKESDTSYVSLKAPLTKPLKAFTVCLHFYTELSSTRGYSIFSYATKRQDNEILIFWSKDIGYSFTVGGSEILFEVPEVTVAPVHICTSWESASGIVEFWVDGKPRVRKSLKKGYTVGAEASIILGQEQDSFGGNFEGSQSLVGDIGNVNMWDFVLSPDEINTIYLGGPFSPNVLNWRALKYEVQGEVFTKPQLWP
# [2] = molecular target: HIV-1 reverse transcriptase (HIV-1 RT) (HIV-1, UniProt P04585;P04585 588-1147;588-1027); experiment: EDL FET (AlGaN/GaN HEMT) biosensor; 1X PBS with 1% BSA; 1 fM-10 pM RT; current gain decreases with concentration; 1X PBS with 1% BSA (or undiluted human serum for CRP), 5 min incubation for HIV-1 RT, no washing; Vd 2 V, Vg pulse 0 to 0.5 V (HIV-1 RT); pH and temperature not stated; conditions: copies: 1;1
Binder,binding result (C-reactive protein (CRP)),binding result [1],binding result [2]
B1,binds,binds,–
"TTTTTTTATACGTGAGCGTGCTGTCCCCTAAAGGTGATACGTCAGGGG (ssDNA, 5' thiol (SH)) [HIV-1 RT aptamer]",–,–,binds
